# US20220112240
# Legend:
# [1] = tested on: T1, D-2 FLAG (branched peptide; branching symbol printed as an image)
# T1 sequence 1: FFKY
# T1 sequence 2: DYKDDDDKG
# [2] = tested on: T2, L-2 FLAG (branched peptide; branching symbol printed as an image)
# T2 sequence 1: XFKY
# T2 sequence 2: DYKDDDDKG
substance,measurement,setting,value
"enterokinase (ENTK), enzyme added in solution",circular dichroism after ENTK cleavage of the branch,[1],the cleavage of the branch results in largely β-sheet (D-1) and random-coil (FLAG-tag) like secondary structures ... as well as for those of D-2 FLAG and L-2 FLAGs
same,circular dichroism after ENTK cleavage of the branch,[2],the cleavage of the branch results in largely β-sheet (D-1) and random-coil (FLAG-tag) like secondary structures ... as well as for those of D-2 FLAG and L-2 FLAGs
